This passage reports Kd and stoichiometry N results from publication PMC9669668.

Assay [1] has as its target nucleotide-binding domain of Hsp70 (Hsp70 NBD, aa 1–382) (human) (UniProt P0DMV8). The experiment in a line: ITC.
The target is the same in assay [2]. The experiment in a line: ITC. The source holds these as a separate data set. In general terms: ITC needs no label: the signal is the heat of the interaction.

Read-outs that look alike come from different tables or passages of the source.

Sequence of UniProt P0DMV8 (P0DMV8 1-382): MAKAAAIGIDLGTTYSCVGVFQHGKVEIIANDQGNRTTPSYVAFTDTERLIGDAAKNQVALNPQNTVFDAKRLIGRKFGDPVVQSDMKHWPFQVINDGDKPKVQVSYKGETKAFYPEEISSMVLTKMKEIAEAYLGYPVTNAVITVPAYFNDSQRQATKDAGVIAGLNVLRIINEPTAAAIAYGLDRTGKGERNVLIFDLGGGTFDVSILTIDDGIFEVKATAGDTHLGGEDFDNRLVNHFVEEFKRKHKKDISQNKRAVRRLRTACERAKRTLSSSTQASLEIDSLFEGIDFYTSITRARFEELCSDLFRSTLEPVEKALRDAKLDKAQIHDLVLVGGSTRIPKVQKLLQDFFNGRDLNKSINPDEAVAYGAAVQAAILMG

By Kd is commonly meant the concentration at which binding is half-saturated. A lower Kd goes with a tighter complex. Broadly, the stoichiometry N is the number of molecules, sites or subunits per partner or assembly. The substance “FAF1 L-UBL1 (aa 91–171) (from UniProt Q9UNN5 91-171) (domain or fragment)” had a dissociation constant Kd in assay [1] of 3.1 µM. In assay [2], this substance had an equilibrium dissociation constant (Kd) of 3.1 µM and a stoichiometry N of 1.
Turning to “FAF1 (aa 1–171) (from UniProt Q9UNN5 1-171) (domain or fragment)”, the Kd in assay [1] amounted to 56.5 µM. Besides, in assay [2], the Kd turned out to be 15.9 µM and the stoichiometry N worked out at 1.
